Tests used:
[1] = target: α-synuclein (αS) fibrils (human) (UniProt P37840); experiment: microfluidic diffusional sizing; in solution; labelled Hsc70 with αS fibrils (concentrations as monomer equivalents); 50 mM HEPES-KOH pH 7.5, 50 mM KCl, 5 mM MgCl2, 2 mM DTT; in the presence of ATP
[2] = target: α-synuclein (αS) fibrils (human) (UniProt P37840); experiment: microfluidic diffusional sizing; in solution; labelled Hsc70 with αS fibrils (concentrations as monomer equivalents); 50 mM HEPES-KOH pH 7.5, 50 mM KCl, 5 mM MgCl2, 2 mM DTT; in the presence of ATP and DnaJB1
[3] = target: α-synuclein (αS) fibrils (human) (UniProt P37840); experiment: microfluidic diffusional sizing; in solution; DnaJB1 or Apg2 alone with αS fibrils (concentrations as monomer equivalents); 50 mM HEPES-KOH pH 7.5, 50 mM KCl, 5 mM MgCl2, 2 mM DTT

heat shock cognate Hsc70 (HSPA8), sequence (P11142 whole entry): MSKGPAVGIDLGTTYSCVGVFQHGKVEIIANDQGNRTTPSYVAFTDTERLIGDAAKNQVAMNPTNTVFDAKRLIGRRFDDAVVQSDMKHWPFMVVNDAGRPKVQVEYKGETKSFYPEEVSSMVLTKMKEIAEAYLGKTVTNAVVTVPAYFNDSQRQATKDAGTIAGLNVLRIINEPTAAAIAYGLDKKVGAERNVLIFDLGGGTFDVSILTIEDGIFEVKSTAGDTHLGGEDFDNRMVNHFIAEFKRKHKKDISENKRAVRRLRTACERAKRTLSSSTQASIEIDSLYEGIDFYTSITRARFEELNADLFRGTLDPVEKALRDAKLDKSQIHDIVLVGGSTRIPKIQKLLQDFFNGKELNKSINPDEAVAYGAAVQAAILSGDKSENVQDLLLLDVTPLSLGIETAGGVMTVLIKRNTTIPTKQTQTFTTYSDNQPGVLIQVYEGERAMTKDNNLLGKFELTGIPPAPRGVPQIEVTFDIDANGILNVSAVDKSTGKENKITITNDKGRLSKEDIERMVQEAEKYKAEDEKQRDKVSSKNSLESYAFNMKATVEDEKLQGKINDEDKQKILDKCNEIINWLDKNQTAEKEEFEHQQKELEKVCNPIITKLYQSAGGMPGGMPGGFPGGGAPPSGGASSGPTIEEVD
DnaJB1 (Hsp40 class B J-protein), sequence (P25685 whole entry): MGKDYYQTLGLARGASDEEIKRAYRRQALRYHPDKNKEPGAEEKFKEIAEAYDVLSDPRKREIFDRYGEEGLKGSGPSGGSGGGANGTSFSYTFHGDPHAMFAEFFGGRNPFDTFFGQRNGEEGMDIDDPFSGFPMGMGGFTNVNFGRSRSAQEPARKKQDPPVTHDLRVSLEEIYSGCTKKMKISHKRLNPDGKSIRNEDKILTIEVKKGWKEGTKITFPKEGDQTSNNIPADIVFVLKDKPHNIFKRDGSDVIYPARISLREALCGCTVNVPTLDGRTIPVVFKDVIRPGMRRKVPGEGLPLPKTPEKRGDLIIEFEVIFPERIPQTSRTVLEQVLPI

Substance	Kd [1] [nM]	stoichiometry N (αS monomer units per Hsc70 molecule) [1]	Kd [2] [nM]	Kd [3] [nM]
heat shock cognate Hsc70 (HSPA8) (from UniProt P11142 1-646) (natural protein)	139	5.3	47.5	–
DnaJB1 (Hsp40 class B J-protein) (from UniProt P25685 1-340) (natural protein)	–	–	–	246

Source: paper PMC8516981
